Assay results as given in paper PMC12894433.

System: dCas9 (EnGen Spy dCas9, SNAP-tag) (Streptococcus pyogenes)
Assay: single-molecule fluorescence co-localization
Settings: NEBuffer r3.1 adjusted to 1 mM MgCl2; single-molecule: 17 nM YOYO-1, 1 ng DNA, about 1 nM dCas9-RNA, 15 min at 37 C; EMSA: 1 mM DTT, 1% agarose 1x TAE gel

Substance	binding signal (% co-localization)
AAV2-ITR crRNA:tracrRNA-ATTO550 guide + pAAV-U6-sgRNA-CMV-GFP plasmid (positive)	51
AAV2-ITR crRNA:tracrRNA-ATTO550 guide + plasmid lacking the target site (negative)	23
